In article PMC3682478:

Target: E. coli RNA polymerase in elongating complexes and paused transcription complexes (transcription assays) (E. coli) (UniProt P0A7Z4)
Sequence (P0A7Z4 whole entry, chain 1 of 3): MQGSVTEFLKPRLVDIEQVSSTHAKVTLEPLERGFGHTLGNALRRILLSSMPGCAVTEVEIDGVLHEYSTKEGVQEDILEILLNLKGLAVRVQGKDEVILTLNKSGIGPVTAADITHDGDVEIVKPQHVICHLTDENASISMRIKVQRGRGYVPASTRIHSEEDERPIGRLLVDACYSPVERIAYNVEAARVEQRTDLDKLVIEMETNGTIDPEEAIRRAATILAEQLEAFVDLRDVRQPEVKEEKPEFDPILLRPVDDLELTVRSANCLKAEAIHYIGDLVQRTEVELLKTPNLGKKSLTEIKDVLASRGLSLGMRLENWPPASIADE
Sequence (P0A8V2 whole entry, chain 2 of 3, further chain): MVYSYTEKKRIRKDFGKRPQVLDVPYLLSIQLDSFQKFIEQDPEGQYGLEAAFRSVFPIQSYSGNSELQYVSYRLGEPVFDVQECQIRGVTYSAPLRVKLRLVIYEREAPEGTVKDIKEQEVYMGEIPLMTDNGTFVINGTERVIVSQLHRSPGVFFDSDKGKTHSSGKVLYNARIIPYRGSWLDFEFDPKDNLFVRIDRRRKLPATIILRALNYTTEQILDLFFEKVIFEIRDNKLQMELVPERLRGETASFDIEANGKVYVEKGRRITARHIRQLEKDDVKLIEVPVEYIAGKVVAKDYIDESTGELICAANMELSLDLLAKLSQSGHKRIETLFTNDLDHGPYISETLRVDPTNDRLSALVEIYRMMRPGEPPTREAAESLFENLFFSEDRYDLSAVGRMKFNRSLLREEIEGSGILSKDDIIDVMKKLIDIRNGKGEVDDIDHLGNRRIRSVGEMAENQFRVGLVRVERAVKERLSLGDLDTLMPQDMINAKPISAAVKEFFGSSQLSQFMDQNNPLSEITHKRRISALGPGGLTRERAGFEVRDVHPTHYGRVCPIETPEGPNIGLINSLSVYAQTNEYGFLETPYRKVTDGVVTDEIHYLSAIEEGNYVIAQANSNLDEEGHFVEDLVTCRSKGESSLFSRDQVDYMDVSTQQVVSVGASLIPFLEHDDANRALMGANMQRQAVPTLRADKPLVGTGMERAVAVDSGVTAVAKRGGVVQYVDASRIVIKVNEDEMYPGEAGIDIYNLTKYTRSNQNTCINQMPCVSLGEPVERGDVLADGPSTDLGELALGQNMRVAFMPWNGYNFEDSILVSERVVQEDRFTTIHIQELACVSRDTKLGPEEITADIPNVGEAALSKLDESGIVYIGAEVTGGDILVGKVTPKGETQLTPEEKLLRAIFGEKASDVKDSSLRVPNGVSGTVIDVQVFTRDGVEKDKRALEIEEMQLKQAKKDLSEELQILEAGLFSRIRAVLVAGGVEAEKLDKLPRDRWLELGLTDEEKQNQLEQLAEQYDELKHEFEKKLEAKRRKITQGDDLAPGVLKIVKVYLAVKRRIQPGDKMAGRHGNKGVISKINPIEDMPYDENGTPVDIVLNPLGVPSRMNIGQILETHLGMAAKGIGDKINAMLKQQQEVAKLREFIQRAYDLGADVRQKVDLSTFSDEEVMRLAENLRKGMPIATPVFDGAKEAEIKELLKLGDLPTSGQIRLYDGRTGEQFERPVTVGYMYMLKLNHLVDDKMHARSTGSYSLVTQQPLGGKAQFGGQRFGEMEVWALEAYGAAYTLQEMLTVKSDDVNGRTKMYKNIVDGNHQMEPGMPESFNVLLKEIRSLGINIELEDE
Sequence (P0A8T7 whole entry, chain 3 of 3, further chain): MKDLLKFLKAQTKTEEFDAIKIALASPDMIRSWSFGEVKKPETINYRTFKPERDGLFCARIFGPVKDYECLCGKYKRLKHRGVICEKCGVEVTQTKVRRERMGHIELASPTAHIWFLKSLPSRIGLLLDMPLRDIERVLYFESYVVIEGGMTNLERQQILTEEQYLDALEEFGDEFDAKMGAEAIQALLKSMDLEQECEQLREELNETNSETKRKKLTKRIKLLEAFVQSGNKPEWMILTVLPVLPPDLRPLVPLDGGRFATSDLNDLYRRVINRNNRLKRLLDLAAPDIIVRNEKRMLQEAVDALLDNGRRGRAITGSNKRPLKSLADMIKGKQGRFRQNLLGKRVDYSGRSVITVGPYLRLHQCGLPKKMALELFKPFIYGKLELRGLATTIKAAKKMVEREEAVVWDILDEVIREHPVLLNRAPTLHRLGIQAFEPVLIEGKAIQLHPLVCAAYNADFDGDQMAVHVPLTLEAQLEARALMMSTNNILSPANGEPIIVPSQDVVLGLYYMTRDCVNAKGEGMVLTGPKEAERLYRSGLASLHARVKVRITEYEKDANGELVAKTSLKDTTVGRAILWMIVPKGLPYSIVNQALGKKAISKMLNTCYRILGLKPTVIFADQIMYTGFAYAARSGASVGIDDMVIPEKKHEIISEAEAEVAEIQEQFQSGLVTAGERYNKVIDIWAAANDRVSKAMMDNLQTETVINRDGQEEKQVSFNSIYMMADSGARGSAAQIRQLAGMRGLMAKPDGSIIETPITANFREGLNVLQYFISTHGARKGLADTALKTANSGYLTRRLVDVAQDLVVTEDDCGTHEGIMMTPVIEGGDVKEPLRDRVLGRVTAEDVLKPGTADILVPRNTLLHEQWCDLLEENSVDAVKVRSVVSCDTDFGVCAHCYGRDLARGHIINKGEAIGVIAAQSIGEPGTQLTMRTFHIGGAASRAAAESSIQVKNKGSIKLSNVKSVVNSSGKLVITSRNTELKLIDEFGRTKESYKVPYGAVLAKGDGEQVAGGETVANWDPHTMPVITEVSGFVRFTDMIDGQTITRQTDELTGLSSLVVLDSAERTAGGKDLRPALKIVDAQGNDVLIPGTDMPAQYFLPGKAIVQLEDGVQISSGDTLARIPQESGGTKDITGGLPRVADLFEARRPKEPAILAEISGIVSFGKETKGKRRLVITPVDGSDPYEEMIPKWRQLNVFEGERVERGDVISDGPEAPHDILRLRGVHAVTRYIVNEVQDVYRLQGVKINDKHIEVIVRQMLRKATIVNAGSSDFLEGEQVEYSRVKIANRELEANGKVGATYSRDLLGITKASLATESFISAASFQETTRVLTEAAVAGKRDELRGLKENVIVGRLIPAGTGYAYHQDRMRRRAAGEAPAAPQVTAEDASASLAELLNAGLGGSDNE

maximal pause stimulation k0/kNusA, his pause, scaffold: 1.27
Substance: NusA NTD with N-terminal deletion, Δ(3-18) NTD (from UniProt P0AFF6 1-137) (domain or fragment)
